Laboratory results taken from patent publication US20260226161A1.

Legend:
[1] = target: NKG2A expressed on KHYG-1 cells (endogenous) (human) (UniProt P26715)
[2] = target: Human NKG2A & CD94 with mouse IgG2a Fc tag (AcroBiosystems) (human) (UniProt P26715); assay: SPR (Carterra), antibody on chip, soluble antigen
[3] = target: cynomolgus NKG2A/CD94 (soluble antigen of the equilibrium assay) (cynomolgus) (UniProt Q68VD2); assay: SPR equilibrium response, Langmuir isotherm; antibody on chip, soluble antigen
[4] = target: NKG2A expressed on KHYG-1 cells (endogenous) (human) (UniProt P26715); assay: flow cytometry on KHYG-1 cells (endogenous NKG2A), MFI against Log [Ab] M
[5] = target: NKG2A expressed on KHYG-1 cells (endogenous) (human) (UniProt P26715); assay: competition by flow cytometry on KHYG-1 cells: antibody varied, binding of HLA-E tetramer to NKG2A read as MFI

Human NKG2A & CD94 with mouse IgG2a Fc tag (AcroBiosystems) (human), sequence (P26715 94-233 limits assumed, chain 1 of 2): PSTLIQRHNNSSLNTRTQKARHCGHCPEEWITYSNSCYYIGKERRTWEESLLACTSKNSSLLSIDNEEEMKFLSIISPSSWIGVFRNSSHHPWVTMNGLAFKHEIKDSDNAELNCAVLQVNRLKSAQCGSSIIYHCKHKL
Human NKG2A & CD94 with mouse IgG2a Fc tag (AcroBiosystems) (human), sequence (Q13241 32-179 limits assumed, chain 2 of 2, further chain): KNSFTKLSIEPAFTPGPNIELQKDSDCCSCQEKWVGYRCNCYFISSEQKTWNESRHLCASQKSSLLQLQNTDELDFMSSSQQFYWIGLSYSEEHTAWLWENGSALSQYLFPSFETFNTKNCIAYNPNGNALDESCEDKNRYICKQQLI
NKG2A expressed on KHYG-1 cells (endogenous) (human), sequence (P26715 whole entry, chain 1 of 2): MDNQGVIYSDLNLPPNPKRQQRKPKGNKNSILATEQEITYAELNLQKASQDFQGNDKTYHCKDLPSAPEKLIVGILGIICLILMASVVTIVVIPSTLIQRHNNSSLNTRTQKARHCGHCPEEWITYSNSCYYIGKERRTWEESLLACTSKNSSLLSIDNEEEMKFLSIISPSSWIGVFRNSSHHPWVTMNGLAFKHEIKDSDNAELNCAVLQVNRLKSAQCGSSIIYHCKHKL
NKG2A expressed on KHYG-1 cells (endogenous) (human), sequence (Q13241 whole entry, chain 2 of 2, further chain): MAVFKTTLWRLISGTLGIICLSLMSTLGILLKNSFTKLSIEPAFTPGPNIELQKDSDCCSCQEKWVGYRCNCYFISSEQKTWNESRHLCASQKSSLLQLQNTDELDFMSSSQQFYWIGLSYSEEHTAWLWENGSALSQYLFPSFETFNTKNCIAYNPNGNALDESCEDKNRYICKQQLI
cynomolgus NKG2A/CD94 (soluble antigen of the equilibrium assay) (cynomolgus), sequence (NKG2A, as listed by the source limits assumed, chain 1 of 2): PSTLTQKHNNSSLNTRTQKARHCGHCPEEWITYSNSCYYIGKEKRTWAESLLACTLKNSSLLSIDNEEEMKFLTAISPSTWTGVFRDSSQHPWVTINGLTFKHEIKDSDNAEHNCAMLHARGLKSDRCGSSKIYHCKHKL
cynomolgus NKG2A/CD94 (soluble antigen of the equilibrium assay) (cynomolgus), sequence (CD94, as listed by the source limits assumed, chain 2 of 2): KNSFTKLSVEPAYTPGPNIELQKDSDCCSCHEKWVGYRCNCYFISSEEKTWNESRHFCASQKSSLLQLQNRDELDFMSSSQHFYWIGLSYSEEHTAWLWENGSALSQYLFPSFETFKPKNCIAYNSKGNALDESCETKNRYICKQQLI

- % double-positive events (Q2: PD-L1+ LCL721.221-hPD-L1 cells coupled to NKG2A+ KHYG-1 cells), antibody at 2 nM; monospecific control, no bridging [cont.] [1]: 0.59%
- Kd [2]: 60 pM
- koff [2]: 3e-05 s⁻¹
- kon [2]: 510000 M⁻¹ s⁻¹
- Kd [3]: 11000 pM
- EC50 (read off the curve) [4]: 40 pM
- IC50 (read off the curve) [5]: 300 pM
B1: Benchmark anti-NKG2A antibody (IgG4) (antibody, INN chains, looked up, V domains shown)
VH: QVQLVQSGAEVKKPGASVKVSCKASGYTFTSYWMNWVRQAPGQGLEWMGRIDPYDSETHYAQKLQGRVTMTTDTSTSTAYMELRSLRSDDTAVYYCARGGYDFDVGTLYWFFDVWGQGTTVTVSS
VL: DIQMTQSPSSLSASVGDRVTITCRASENIYSYLAWYQQKPGKAPKLLIYNAKTLAEGVPSRFSGSGSGTDFTLTISSLQPEDFATYYCQHHYGTPRTFGGGTKVEIK
modifications: IgG4
